Assay results published in patent US20240218057A1 (ROCKEFELLER UNIVERSITY, published 2024).

Target: T1, SARS-COV-2 RBD (SARS-COV-2, UniProt P0DTC2 319-539)
T1 construct: also called WT RBD
Experiment: ELISA, RBD coated

B1: C876 (antibody, V domains shown)
VH: EVQLVESGGGLIQPGGSLRLSCAASEFVISRNYMSWVRQAPKKGLEWVSVLYSGGSTFYADSVKGRFTISRDDSRNMLYLQMNSLRAEDTAVYYCVRDFGEFYFDYWGQGVLVTVSS
VL: EIVMTQSPTTLSVSPGERATLSCRASQSLSSNLAWYQQKPGQAPRLLIFGVSTRATGIPARFSGSGSGTEFTLTISSLQSEDFAVYYCQQYYSGPRTFGQGTKVEIK
notes: IgG; V domains only
- EC50: 3.53 ng/mL

B2: C899 (antibody, V domains shown)
VH: EVQLVESGGGLVKPGGSLRLSCAASGFTFSNAWMSWVRQAPGKGLEWVGRIKSKTDAETTDYAAPVRGRFTISRDNSKNTLYLEMNSLKTEDTAVYYCTTDADYSDSSGYYVTYYFEYWGQGSLVTVSS
VL: QSALTQPRSVSGSPGQSVTISCTGSNSDVGGYNYVSWYQQHPGKAPKLVIYDVSLRPSGVPDRFSGSKSGITASLTISGLQPEDEAHYYCCSFAGTYTPWVFGGGTRLTVL
notes: IgG; V domains only
- EC50: 2.23 ng/mL

B3: C891 (antibody, V domains shown)
VH: EVQLVESGGGLVKPGGSLRLSCAVSGFTFSNVWMSWVRQAPGKGLEWVGRIKSKTDGGTTDYAAPVKGRFTISRDDSKNTLYLQMNSLKTEDTAVYYCTSQLWLRGPGDYWGQGTLVTVSS
VL: NFMLTQPHSVSESPGKTVTISCTGSSGSIASNYVQWYQQRPGSAPTTVIYEDNQRPSGVPDRFSGSIDSSSNSASLTISGLKTEDEADYYCQSYDSSLNWVFGGGTKLTVL
notes: IgG; V domains only
- EC50: 2.14 ng/mL

B4: C892 (antibody, V domains shown)
VH: EVQLVESGGGLVKPGGSLKVSCTASGFTFTDAWMSWVRQAPGKGLEWVGRIKSRAYGGTTDYGAPVQGRFTISRDDSINTLYLQMNSLTAEDTAVYYCTSQLWLRGPGDYWGQGTLVTVSS
VL: NFMLTQPHSVSESPGKTVTISCTGSSGSIASNYVHWYQQRPGGAPTTVIYEDNQRPSGVPDRFSGSIDISSNSASLTISGLKTEDEGDYYCQSYDSGVNWVFGGGTKLTVL
notes: IgG; V domains only
- EC50: 1.83 ng/mL

B5: C960 (antibody, V domains shown)
VH: QVQLVESGGGVVQPGRSLTLSCTASGFTFNRFAMFWVRQAPGKGLEWVAVISFDGSYEHYAESVKGRFAIFRDNPKNTLYLQMNSLRAEDTAVYYCAKSPINYCANGVCYPDSWGQGTLVTVSS
VL: NFMLTQPHSVSESPGKTVTISCTGSSGSIANNYVQWYQQRPGSAPTTVIFEDTQRPSGVPDRFSGSIDSSSNSASLNISGLKPEDEADYYCQSFDVNSRWVFGGGTKLTVL
notes: IgG; V domains only
- EC50: 1.62 ng/mL

B6: C959 (antibody, V domains shown)
VH: QVQLQESGPGLVKPSETLSLNCNVSGGSISNYYWSWIRQPPGKGLEWIGFISYSGSTDYNPSLKSRVIISIDTSKKHFSLNLSSVTAADTAVYFCARHYDILTALSWFDPWGQGTLVTVSS
VL: QSVLTQPPSVSAAPGQTVTISCSGSSSNIRNNFVSWYQQFPGTAPKLLIYDNNKRPSGIPDRFSGSKSGTSATLGITGLQTGDEADYYCGTWDSSPSACWVFGAGTKLTV
notes: IgG; V domains only
- EC50: 4.58 ng/mL

B7: C954 (antibody, V domains shown)
VH: QVQLVQSGAEVKKPGSSVKVSCKASGDTFTNYAFSWMRQAPGQGLEWMGRIIPILGIVKYSQKFQDRVRISADKSTSTAYMDLSSLRSEDTAMYYCARDSEFSTSWFSRGYHGMDVWGQGTTVTVSS
VL: DIVMTQSPLSLPVTPGEPASISCRSSQSLLHGDGYNYLDWYLQKPGQSPHLLIYLGSNRTSGVSDRFSGSGSGTDFTLKISRVEAEDVGVYYCMQALQTPPTFGGGTKVEIK
notes: IgG; V domains only
- EC50: 1.48 ng/mL

B8: C878 (antibody, V domains shown)
VH: EVQLVESGGGLVQPGGSLRLSCSVSGFTFSNFAMHWVRQAPGKGLEFVSGVSSDGDITDYADSVKGRFTISRDNSKNTLYLQMSSLRPEDTAVYYCVKDKEHSTMVTIFDFWGQGTLVTVSS
VL: DIQMTQSPSSLSASVGDRVTITCRASQSISSFLNWYQQKPGKAPKLLIYAASSLQSGVPSRFSGRGSGADFTLTITSLQPEDFATYFCQQSYSSHLTFGPGTKVDIK
notes: IgG; V domains only
- EC50: 2.88 ng/mL

B9: C953 (antibody, V domains shown)
VH: QVQLVQSGAEVKKPGSSVKVSCKASGGTFSSYAISWVRQAPGQGLEWMGRIIPILGIANYAQKFQGRVTITADKSTSTAYMELSSLRSEDTAVYYCARDSEYSSSWYSRGYYGMDVWGQGTTVTVSS
VL: not shown
notes: IgG; V domains only
- EC50: 4.09 ng/mL

B10: C986 (antibody, V domains shown)
VH: EVQLVQSGAEVKKPGETLKISCKGSGDSFSNYWIGWVRQSPGKGLEWMAIVYPGDSDARYSPSFQGQVTISADKSVTTAYLKWSSLKASDTAIYYCVRGLPVDWYFDLWGRGTLVTVSS
VL: QSVLTQPPSVSGAPEQRVTISCTGSSSNIGAGHDVHWYQQLPGTAPKLLIYNNNNRPSGVPDRFSGSKSGASASLAISGLQAEDEAEYYCQSYDKSLSVLYVLGTGTKVTV
notes: IgG; V domains only
- EC50: 3.36 ng/mL

B11: C955 (antibody, V domains shown)
VH: QVQLQQWGAGLLKPSETLSLTCAVYGGTFSGYSWTWIRQPPGKGLDWIGEINHSGSTNYNPSLKSRVTISVDTSKNQFSLKLSSVTAADTAVYYCARAGFGFVITSRSGTDPLFDYWGQGTLVTVSS
VL: QSVLTQPPSVSGAPGQRVTISCTGSSSNIGAGYDVHWYQQLPGTAPKVLIYGNNNRPSGVPDRFSGSKSGTSASLAITGLQAEDEADYYCQSYDTSLSGSRVFGGGTKLTVL
notes: IgG; V domains only
- EC50: 2.44 ng/mL

B12: C962 (antibody, V domains shown)
VH: EVQLVESGGGLVQPGGSLRLSCTASRLTVSSNYMNWVRQAPGKGLEWVSVIYAGGSTFYADSVKDRFTISRDNSMNTLYLQMNSLRVEDTAVYYCARLGGYRYGMDVWGQGTTVTV
VL: DIQMTQSPSSLSASVGDRVTITCQASQDISNYLNWYQQSPGKAPKLLIYDASKLETGVPSRFSGSGSGTDFTFTISSLQPEDIATYYCLQYDNLPYSFGQGTKLEI
notes: IgG; V domains only
- EC50: 1.74 ng/mL

B13: C897 (antibody, V domains shown)
VH: QVQLVESGGGVVQPGRSLRLSCAASGFIFSHYGMHWVRQAPGKGLEWVAVILYDGSDQYYADSVKGRFTISRDNSKNTLFLEMNSLRLEDTAVYYCAKGGGQYCSHGNCYLNYFDYWGQGALVTVSS
VL: DIQMTQSPSSLSASVGDRVTITCQASQDIRDNLNWYQQKPGKAPQLLIYDASNLQPGVPSRFSGSGSGTHFTFTISRLQPEDIATYFCQQYANLPTTFGPGTKVDIK
notes: IgG; V domains only
- EC50: 1.88 ng/mL

B14: C901 (antibody, V domains shown)
VH: QVQLVESGGGVVQPGRSLRIACGASGFTFSTYDMHWVRQAPVKGLEWVAVISRDGSGKFYADSVKGRFTISRDNSKKTLYLQMDSLRPEDTAMYYCARDFESRTWDPPKYYYALDVWGQGTTVTVSS
VL: DIQMTQSPSSLSASVGDRVTITCRASQSISTYLNWYQQKPGKAPSLLIYAASSLYSGVPSRFSGSGSGTDFSLTISSLQPEDFATYYCQQTYTTPTWTFGQGTKVEIK
notes: IgG; V domains only
- EC50: 2.01 ng/mL

B15: C896 (antibody, V domains shown)
VH: QVQLVESGGGVVQPGRSLKLSCAASGFTFKTYGMHWVRQAPGKGLEWVAVISYDGTNDYYADSVKGRFTVSRDNSKNTLYLQMNSPRTEDTAVYYCAKAGGPYYYDTSGSFWYFDYWGQGTLVTVSS
VL: DIQMTQSPSSLSASVGDRVTITCRASQTISSYLNWYQQKSGKAPELLVYDASNLESGVPSRFSGSGSGTDFTLTISSLQPEDFATYYCQQSYSFGPGTKVDIK
notes: IgG; V domains only
- EC50: 4.3 ng/mL

B16: C898 (antibody, V domains shown)
VH: QVQLVQSGAEVKKPGSSVKVSCKASGGPFSSYAFTWVRQAPGQGLEWMGGIIATFGTVNYAQKFQGRVTITADEFTSTVNMELSSLRSDDTAVYYCARRDCSTTSCYDEVLYRLVDWGQGTLVTVSS
VL: EIVLTQSPGTLSLSPGERATLSCRASQSVNSDYLAWYKQKPGQAPRLLIYGTSSRATGIPDRFSGSGSGTDFTLTISRLEPDDFAVYYCQQYGNSPRTFGQGTKVEIK
notes: IgG; V domains only
- EC50: 7.6 ng/mL

B17: C952 (antibody, V domains shown)
VH: EVQLVQSGAEVKKPGESLTISCKDSGNSFTIYWIGWVRQMPGKGLEWMGMIYPGDSGTRYSPSFEGQVTISADESINTAYLQWRSLKASDTAMYYCVRGIAVDWYFDLWGRGTLVTVSS
VL: QSVLTQPPSVSGAPGQRVTISCTGSSSNIGAGFDVHWYQQLPGTAPKLLIYGNNNRPSGVPDRFSGSKSATSASLAITGLQAEDEADYYCQSSDSSLSGLYVFGTGTNVIV
notes: IgG; V domains only
- EC50: 2.4 ng/mL

B18: C956 (antibody, V domains shown)
VH: EVQLVESGGGLVQPGRSLRLSCTGSEFTFGDFSMSWFRQAPGKGLEWVGFIRRKADGGTTEYAASVRGRFTISRDDSKSIAYLVMNSLKSEDTAVYYCTRAWIPTPHDYWGQGVLVTVSS
VL: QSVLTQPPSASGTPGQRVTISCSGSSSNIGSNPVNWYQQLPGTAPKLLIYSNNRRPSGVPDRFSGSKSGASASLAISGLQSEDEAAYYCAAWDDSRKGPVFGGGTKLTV
notes: IgG; V domains only
- EC50: 1.58 ng/mL

B19: C957 (antibody, V domains shown)
VH: EVQLVESGGGLVQPGRSLRLSCTASGFTFADFSMTWFRQAPGKGLEWVGFIRREADGGTTEYAASVRGRFTISRDDSKGIAYLLMNSLKSEDTAMYYCSRAWIPTPHDYWGQGTLVTVSS
VL: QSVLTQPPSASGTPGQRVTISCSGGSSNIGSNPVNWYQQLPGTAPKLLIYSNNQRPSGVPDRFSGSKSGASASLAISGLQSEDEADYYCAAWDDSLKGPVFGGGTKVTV
notes: IgG; V domains only
- EC50: 1.93 ng/mL

B20: C900 (antibody, V domains shown)
VH: QVQLQESGPGLVKPSGTLSLTCTVSGGSINSRNWWSWVRQPPGKGLEWIGEIFHSGSTNYNPSLESRVAISIDKSHNHFSLKLTSVTAADTAVYYCARANGILDFWGQGTLVTVSS
VL: DIQMTQSPSSLSASVGDRVTITCRASQGISNSLAWYQLKPGKAPKLLLYAASTLESGVPSRFSGSGSGTNFTLTISSLQPEDFASYCCQHYYSSPRTFGQGTKVEI
notes: IgG; V domains only
- EC50: 2.54 ng/mL

B21: C895 (antibody, V domains shown)
VH: QVQLVQSGAEVKKPGSSVKVSCKASGGTFTSYAFSWVRQAPGQGLEWMGGIIPIFGTTNYAQKFQGRVTITADESTSTAYMELSSLRSEDTAVYYCARPEGCGSRTSCTPGAYYYGMDVWGQGTTVTVSS
VL: EIVLTQSPATLSLSPGERATLSCRASQSVGSYLAWYQQKPGQAPRLLIYDASNRATGIPARFSGSGSGTDFTLTISSLEPEDFAFYFCQQRNSWPPEYSFGQGTKLEIK
notes: IgG; V domains only
- EC50: 2.21 ng/mL

B22: C893 (antibody, V domains shown)
VH: EVQLVQSGAEVKKPGESLKISCKGSGYYFTRQWIGWVRQMPGKGLEWMGIIYPGDSDTRYSPSFQGQVTISADKSISTAYLQWSSLKASDTAMYYCARGGWDPAEYSSSGGGGLDAFDIWGQGTMVTVSS
VL: EIVLTQSPATLSLSPGERATLSCRASQSVSSYLAWYQQRPGRAPRLLIYDASNRATGIPGRFSGSGSGTDFSLTISSLEPEDFAVYYCQQRSSWPLTFGQGTRLEIK
notes: IgG; V domains only
- EC50: 3.73 ng/mL

B23: C902 (antibody, V domains shown)
VH: EVQLVQSGAEVKKPGESLRISCKGSGYSFHTYWIHWVRQMPGKGLEWMGKIDPSDSYTNYSPSFQGHVTFSADRSISTAYLQWSSLKASDTATYYCARLSWSPPTRTTDEKNWFDPWGQGTLVTVSS
VL: DIQLTQSPSFLAASAGDRVTITCRASQGISSYLAWYQQKPGKAPKVLIYAASTLQSGVPSRFSGSGSGTEFTLTISSLQPEDCATYYCQQFNSDPLTFGGGTKVEIK
notes: IgG; V domains only
- EC50: 3.39 ng/mL
